# Measured values published in patent US20080267989A1.
# Key:
# [1] = molecular target: 2F5 (broadly neutralizing human monoclonal antibody to the gp41 MPR); assay: cell-based or functional assay
# [2] = molecular target: 2F5 (broadly neutralizing human monoclonal antibody to the gp41 MPR); assay: competition ELISA, peptide serially diluted with 1 ug/ml 2F5 on NE3-captured HBsAg-MPR particles
Molecule,"neutralization activity of 2F5 adsorbed out, SF162.LS virus (TZM-B1 cells, luciferase) [1]","neutralization activity of 2F5 adsorbed out, YU2.5G3 virus (TZM-B1 cells, luciferase) [1]",fold enhancement of 2F5 binding to HBsAg-MPR particle [2]
HBsAg-MPR particles (HBsAg with the HIV-1 gp41 membrane proximal region at the C-terminus),21%,10%,
NEQELLELDKWASLWN [16-mer peptide harboring the 2F5 epitope (…)],,,2 fold
